Assay results reported in publication PMC10248883 (The Journal of Biological Chemistry, 2023).

Key:
RAMP2–CLR ECD = details: read-out: KI, equilibrium affinity; purified RAMP2–CLR ECD complex; ref [31]; cited from earlier work
RAMP3–CLR ECD = details: read-out: KI, equilibrium affinity; purified RAMP3–CLR ECD complex; ref [31]; cited from earlier work
[1] = molecular target: NLuc–CLR–RAMP3 receptor (AM2R) in COS-7 membranes (human) (UniProt Q16602); assay: FRET or BRET
Sequence of NLuc–CLR–RAMP3 receptor (AM2R) in COS-7 membranes (human) (Q16602 23-461, chain 1 of 2): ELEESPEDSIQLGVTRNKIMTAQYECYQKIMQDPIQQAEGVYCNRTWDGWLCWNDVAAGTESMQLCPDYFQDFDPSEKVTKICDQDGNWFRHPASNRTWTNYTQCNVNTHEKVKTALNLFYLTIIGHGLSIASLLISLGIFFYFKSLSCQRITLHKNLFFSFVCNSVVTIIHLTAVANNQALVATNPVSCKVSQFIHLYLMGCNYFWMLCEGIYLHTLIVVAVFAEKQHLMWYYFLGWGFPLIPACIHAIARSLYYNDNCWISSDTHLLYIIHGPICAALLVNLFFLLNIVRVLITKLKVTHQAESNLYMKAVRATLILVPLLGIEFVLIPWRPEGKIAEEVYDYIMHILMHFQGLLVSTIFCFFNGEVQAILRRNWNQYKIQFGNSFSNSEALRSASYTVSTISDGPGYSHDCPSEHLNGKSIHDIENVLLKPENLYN
Sequence of NLuc–CLR–RAMP3 receptor (AM2R) in COS-7 membranes (human) (O60896 24-148, chain 2 of 2, further chain): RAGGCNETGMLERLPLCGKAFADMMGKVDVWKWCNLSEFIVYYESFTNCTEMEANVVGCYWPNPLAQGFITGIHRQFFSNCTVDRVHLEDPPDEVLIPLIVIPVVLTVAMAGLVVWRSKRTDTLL

Substance | Ki (RAMP2–CLR ECD) | Ki (RAMP3–CLR ECD) | Kd [1] | half-life (t1/2) from the off-rate of the association kinetics [1] | half-life of the fast component of dissociation [1] | half-life of the slow component of dissociation [1]
AM2/IMD: Synthetic human peptide AM2/IMD(1–47) purchased from Bachem | ~14000 nM | ~2000 nM |  |  |  | 
AM2/IMD–TAMRA (peptide) |  |  | 7 nM | 41 min | 7 min | 76 min
AM–TAMRA (peptide) |  |  | 26 nM | 2.6 min | 0.75 min | 6.9 min
